Test results as given in patent publication US12214046B2, “Protein-loaded PLGA nanospheres” (West Virginia University Board of Governors on behalf of …, priority 2019, dated 2025).

Test: In vivo induction of free IL-12 toxicity in healthy mice (blood immunophenotyping by flow cytometry)
Parameters: species or system BALB/c mice
Settings: 100 ng or 100 ug retro-orbital, baseline vs 48 h
Protocol: Red blood cells were lysed with Red Blood Cell (RBC) Lysis Solution (Miltenyi Biotec, Auburn, CA). Single cell suspensions were split and incubated with optimized lymphoid (L) and myeloid (M) antibody panels according to the manufacturer's instructions: a minimum of 1×104 events were analyzed for each sample.
Two groups of four BALB/c mice (two female and two male per group) were cheek bled by piercing the facial venous plexus with a sterile 4 mm Goldenrod Animal Lancet (Braintree Scientific. Braintree. MA) to gather 100 μL whole blood for baseline immunophenotyping. Immediately following cheek bleeds, each group was given a retro-orbital (r.o.) injection of either a low (100 ng) or high (100 ug) dose of free recombinant mouse (rm) IL-12 (eBiolegend. San Diego. CA) with 0.1% mouse serum albumin (MSA. Sigma. St. Louis, MO) in 150 μL DPBS. At 24 and 48 hours following r.o. injections, mice underwent additional cheek bleeds for immunophenotyping.
Twelve BALB/c mice were cheek bled for 100 μL whole blood (baseline) before being dosed with either 100 ng (L: low dose) or 100 ug (H: high dose) of recombinant mouse (rm) IL-12 via retro-orbital (r.o.) injection. Mice were cheek bled again at 24 and 48 hours (48 h), and blood samples were immunophenotyped via flow cytometry. CD8^−CD4^+ helper T cells (left, white). CD4^−CD8^+ cytotoxic T cells (middle, gray), and CD8^−CD4^+FOXP3^+CD25^+/− regulatory T cells (right. black) were assessed for the extent of PD1^+TIM-3^+ positivity, which can be indicative of exhaustion. Shown in FIG. 17 are T cell data from baseline and 48 h time points. Individual bars (top half) represent group averages+SD. […] Baseline blood samples (n=4:2 male and 2 female per group) were compared to 48 h samples using unpaired two-tailed/tests, * p<0.05, ** p<0.01. *** p<0.001.
Twelve BALB/c mice were cheek bled for 100 μL whole blood (baseline) before being dosed with either 100 ng (L: low dose) or 100 ug (H: high dose) of recombinant mouse (rm) IL-12 via retro-orbital (r.o.) injection. […]

B1: IL-12: Recombinant mouse IL-12 (p70), immunostimulatory cytokine, purchased from Biolegend (protein, UniProt P43431 23-215; P43432 23-335, looked up)
Interleukin-12 subunit alpha: RVIPVSGPARCLSQSRNLLKTTDDMVKTAREKLKHYSCTAEDIDHEDITRDQTSTLKTCLPLELHKNESCLATRETSSTTRGSCLPPQKTSLMMTLCLGSIYEDLKMYQTEFQAINAALQNHNHQQIILDKGMLVAIDELMQSLNHNGETLRQKPPVGEADPYRVKMKLCILLHAFSTRVVTINRVMGYLSSA
Interleukin-12 subunit beta: MWELEKDVYVVEVDWTPDAPGETVNLTCDTPEEDDITWTSDQRHGVIGSGKTLTITVKEFLDAGQYTCHKGGETLSHSHLLLHKKENGIWSTEILKNFKNKTFLKCEAPNYSGRFTCSWLVQRNMDLKFNIKSSSSSPDSRAVTCGMASLSAEKVTLDQRDYEKYSVSCQEDVTCPTAEETLPIELALEARQQNKYENYSTSFFIRDIIKPDPPKNLQMKPLKNSQVEVSWEYPDSWSTPHSYFSLKFFVRIQRKKEKMKETEEGCNQKGAFLVEKTSTEVQCKGGNVCVQAQDRYYNSSCSKWACVPCRVRS
effect on PMN-MDSC in peripheral blood: Polymorphonuclear-Myeloid-Derived Suppressor Cell (PMN-MDSC) Myelocytosis
effect on T lymphocyte subsets in peripheral blood (PD1+TIM-3+ positivity): T cell exhaustion of helper, cytotoxic, and regulatory T lymphocyte subsets
effect on circulating Natural Killer (NK) cells: Decrease of Circulating Natural Killer (NK) Cells
